Test results from paper PMC4838375.

Columns and labels:
Assay in all cases: ITC
[1] = biological target: PHDVC5HCH_(NSD1) tandem domain (murine NSD1, Glu2117–Asp2207), wild type (mouse)
[2] = biological target: PHDVC5HCH_(NSD1) E2204A (mouse) (UniProt O88491)
[3] = biological target: PHDVC5HCH_(NSD1) H2205R (mouse) (UniProt O88491)
[4] = biological target: PHDVC5HCH_(NSD1) R2152Q (mouse) (UniProt O88491)

Kd [1] [µM] | dH [1] [kcal/mol] | stoichiometry N [1] | Kd [2] [µM] | Kd [3] [µM] | Kd [4] [µM] | dH [4] [kcal/mol] | Substance
6.1 | 2.2 | 1.1 | – | – | – | – | C2HR_(Nizp1) R415A (peptide)
36 | 1.5 | 1.1 | – | – | – | – | C2HR_(Nizp1) R417A (peptide)
– | 1.7 | – | – | – | – | – | C2HR_(Nizp1) R427A (peptide)
3.8 | 4.1 | 1.1 | 45.2 | 27.2 | 4.9 | 3.5 | C2HR_(Nizp1) synthetic peptide (murine Nizp1, E397-K434), wild type
